Here are results for 41 sequences from the nanobody polyreactivity screen of Harvey et al. (2022).

The data set can be described thus: yeast display, Sf9 membrane polyspecificity reagent, FACS + sequencing; frameworks hold sequencing errors. The method in brief:
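After 36–48 hours of galactose induction, yeast (Saccharomyces cerevisiae BJ5465) displaying a synthetic nanobody library were stained at 4 °C for 1 hour with 10% biotinylated, detergent-solubilized Sf9 membrane reagent. Streptavidin microbeads enriched the stained cells before FACS sorting into low and high (top ~1%) gates on anti-HA and streptavidin fluorescence. Each clone's polyreactivity label reflects its gate of origin.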
Turning to “QFQLEESGGGIVQAGGSLRLSCAASGSTFYYNAMGWYRQAPGKERDLVAAITGSGTGTNYADSVKGRFTISRDNAKITVYLQMNSLKTEDTAVYYCAADYVWRGDPINSYLSWYVYWGQGTQVTVSS”, the “polyreactivity (PSR sort gate)” value was “low polyreactivity”.

With “QFQLEESGGGLVQAGGSLRLSCAASGFTFFTYAMGWYRQAPGKERELVAAITTGGSTNYADSVKGRFTISRDNAKNTVYLQMNSLKPEDTAVYYCAVYGYVYGSAVQYDYWGQGTQVTVSS”, the “polyreactivity (PSR sort gate)” value is recorded as “low polyreactivity”.

Turning to “QFQLEESGGGLVQAGGSLRLSCAASGSIFKGYTMGWYRQAPRKVREFVASMSRRGGSTYYADSVKGRFTISRDYAKNTVYLQMNSLKPEDTAVYYCAKDYGKAYDDWGQGTQVTVSS”, the “polyreactivity (PSR sort gate)” value is on record as “high polyreactivity”.

For the sequence “QFQLEESGGGLVQAGGSLRLSCADSGIIFFFYAMGWYRQAPGKERELVAAISDDGVSTDYADSVKGRFTISRDNAKNTVYLQMNSLKPEDTAVYYCAAKTERVYPWFSFGYWGQGTQVTVSS”, the “polyreactivity (PSR sort gate)” value is “low polyreactivity”.

In the case of “QFQLVEAGGGLVQAGGSLRLSCAASGRIFTYYAMGWYSQAPGKERELVAAITGSGGSTYYADSVKGRFTISRDNAKTTVYLQMISLKPEDTAVYYCARTDRRLGAHQGDYWGQGTQVTVSS”, the “polyreactivity (PSR sort gate)” value was “high polyreactivity”.

With “QFQLVESGGGLDQAGGSLRLSCAASGLTFYGYAMGWYRQAPGKERELVAAITWGGGSTYYADSVKGRFTISRDKAKNTVYLQMNSLKPEETEVYYCNADYYLPAIRYDYWGQGTKVTVSS”, the “polyreactivity (PSR sort gate)” value is reported as “low polyreactivity”.

As to “QFQLVESGGGLDQAGGSLRLSCAASGRIFDGYVMGWYRQAPGKDRELVAAISSSGGRTYYADSVKGRFTISRDNAKNTVYLQMNCLKPDDTAVYYCAARYGRYRSVDYWGQGTQVTVSS”, the “polyreactivity (PSR sort gate)” value is given as “high polyreactivity”.

Regarding “QFQLVESGGGLDQAGGSLRLSCAASGRTFCNNAMGSYRQAAGKETELFAAISVLGGSTYYADSVKGRFTISRDNAKYTVFLQMNSLKPEDTAVYYCATRSRGWIAPPWQGSDGLYYWGQGTQVTVSS”, the “polyreactivity (PSR sort gate)” value is recorded as “low polyreactivity”.

“QFQLVESGGGLFQAGGSLRLICAASGSNFGGNTMSWYRHAPGKERDLVAAISRSGTRTYYADSVKGRFTISRDTAKNTVYLQMKSLKPVATAVYYCNAKKVLPPPYDYWGQGTQVTVST”: the “polyreactivity (PSR sort gate)” value was “high polyreactivity”.

In the case of “QFQLVESGGGLVHAGGSLRLSCASSGSIFVVYAMGWYRQAPGKEREFVASIRTGGSTNYADSVKGRFTISRDNAKNTVYLQMNSLKPEDTAVYYCAAASWNSNRHYYVARYYYWGQGTQVTVSS”, the “polyreactivity (PSR sort gate)” value is given as “high polyreactivity”.

In the case of “QFQLVESGGGLVQAGASLRLSCAASGNIFPAYAMGWYRQAPGKERELVATISRRGGGTYYADSVKGRFTISRDNAKNTVYLQMNSLKQEDTAVYYCNVAGWTSAYDYWGQGTQVTVSS”, the “polyreactivity (PSR sort gate)” value was “low polyreactivity”.

With “QFQLVESGGGLVQAGASLRLSSAASGSTFVFYAMGWYRQAPGKERELVATISTGVSTYADSVKGRFTISRDNAKNTVYLQMNSLKPEDTAVYYCAADSLFGHYDYSGQGTQVTVSS”, the “polyreactivity (PSR sort gate)” value is recorded as “low polyreactivity”.

Turning to “QFQLVESGGGLVQAGGILRLSCAASGSTFCVYAMGWYRQAPGKERELVATINSGGSTNYADSVKGRFTISRDNAKNTVYLQMNSLKPEDTAVYYCAAGPFWQDFYVYEYDYWGQGTQVTVSS”, the “polyreactivity (PSR sort gate)” value is listed as “low polyreactivity”.

In the case of “QFQLVESGGGLVQAGGSLLLSCAASGSIFAPYDMGWYRQEPGKERELVAAISSSGGSTYYEDSVKGRFTISRDNSKNTVYLHMNSQKPEDTAVYYCDPEPYHGLYDYSGQGTQVTVSS”, the “polyreactivity (PSR sort gate)” value is on record as “low polyreactivity”.

On to “QFQLVESGGGLVQAGGSLRISCAASGSIFLFYAMGWYRKAPGKERELVAAIDQSGGSTYYADSVKGRFTFSRDNAKKTVYFQMNSLKPEDTAVYYSAAVHSLYWLGDDTYGYDYWGQGTQVTVSS”, for which the “polyreactivity (PSR sort gate)” value was “low polyreactivity”.

“QFQLVESGGGLVQAGGSLRLSCAASALIFTPNAMGSYIPAPGKESELVAAISSSGRTSYADSVKGRFTISRDNAKNAVYLQMNSLKPEDTAVYYSNATWRWTRRGYVYWGQGTQVTLSS”: the “polyreactivity (PSR sort gate)” value is recorded as “low polyreactivity”.

In the case of “QFQLVESGGGLVQAGGSLRLSCAASGFIDNTMGWYRQAPGKQRELVATISWSDGSTYYADSVKGRFTISRDNAKITVYLLMNSLKPEDTAVYYCAATTDALVGRPRYDYWGQGTQVTVSS”, the “polyreactivity (PSR sort gate)” value is reported as “low polyreactivity”.

Regarding “QFQLVESGGGLVQAGGSLRLSCAASGFIFGYNAMGWYRQAPGKERELVAAINWSGDITYYADSVKGRFTISRDNAKNTVYLQMNSLKPEDTAVYYCAADDYYIPSSWDFDYWGQGTQVTVSS”, the “polyreactivity (PSR sort gate)” value is recorded as “low polyreactivity”.

As for “QFQLVESGGGLVQAGGSLRLSCAASGFIFYRNAMGGYRQAPGKERELVAGITSGGRPYYADSVKGRFTISRDNAKNTVYLQMNCLKPEDTGVYYCAARRSRPTYYSTGVNYWGQGTQVTVSS”, the “polyreactivity (PSR sort gate)” value is “high polyreactivity”.

“QFQLVESGGGLVQAGGSLRLSCAASGFIIEYNTMGWYRQAPGKERELVAAISFIGGRTYYADSVKGRFTISRDNAKNTVYLQMNSMKPEDNAVYYCKTRDGGYYCGARRVLYYYWGQGTQVTLSS”: the “polyreactivity (PSR sort gate)” value is reported as “high polyreactivity”.

Consider “QFQLVESGGGLVQAGGSLRLSCAASGFTFIKYAMGWYRQAPGKEREFVATISWNGGNTYYADSVKGRFTISRDNAKNTVYLQMNSLKPEDTAVYYCAARRRAFGSTYNYWGQGTQVTVSS”, for which the “polyreactivity (PSR sort gate)” value is on record as “high polyreactivity”.

For the sequence “QFQLVESGGGLVQAGGSLRLSCAASGFTFPRYAMGWYRQAPGKERELVAAITSGDRTYYADSVKGRFTISRDNAKNTVYLQMNSLKPEDTAVYYCAKSSPRKSSQKHSFYEYNYWGQGTQVSVSS”, the “polyreactivity (PSR sort gate)” value is listed as “high polyreactivity”.

In the case of “QFQLVESGGGLVQAGGSLRLSCAASGFTFRRVTAIGWYRQAPGKERELVAGINSGDITYYADSVKGRFTFSRDNAKNTVYLQMNSLIPEDTAVYYCAARVVYGYGHNDYWGQGTQVTVSS”, the “polyreactivity (PSR sort gate)” value is given as “low polyreactivity”.

As to “QFQLVESGGGLVQAGGSLRLSCAASGFTFYRNAMGWYRQAPGKERELVAAITSTGSTNYADSVKGRFTISRDNAKNTVYLQMNSLKPEDTAVYYCNKRRFGRQGMDYWGQGTQVTVSS”, the “polyreactivity (PSR sort gate)” value is “low polyreactivity”.

For the sequence “QFQLVESGGGLVQAGGSLRLSCAASGGILYRYAMGWYRPAPGKERELVAAIRWSGGSTYYADSVKGRFTISRDNAKNTVYLQMNSLKPEDTAVYYCAADVYYYHVLDFDYWGQGTQVTVSS”, the “polyreactivity (PSR sort gate)” value was “low polyreactivity”.

As to “QFQLVESGGGLVQAGGSLRLSCAASGIIFAGNAMGWYRQAPGKERELVAVITSVGSTYYADSVTGRFTISRDNAKNTVYLQMNSLKPEDTAVYYCNAVSWWRYDYCGQGTQVTVSS”, the “polyreactivity (PSR sort gate)” value is listed as “high polyreactivity”.

With “QFQLVESGGGLVQAGGSLRLSCAASGLIFAYYAMGWYRQAPGKERELVAAISWTGGSTYYADSVKGRFTISRDNAKNTVYLQMNSLKPEDTAVYYCNTVGKPGFYSWGQGTQVTVSS”, the “polyreactivity (PSR sort gate)” value is “high polyreactivity”.

For “QFQLVESGGGLVQAGGSLRLSCAASGLIFGAYDMGWYRQAPGKERELVAAITYSGGRTHYADSVKGRFTISRDNAKNTVYLQMNSLKPDDTAVYYCAAGSSHHFDYEGGYWGKGTQVTVSS”, the “polyreactivity (PSR sort gate)” value is recorded as “low polyreactivity”.

Turning to “QFQLVESGGGLVQAGGSLRLSCAASGLIFRIYAMGWYRQAPGKEREFVAAIRWRGGSTYYADSVKGRFTISRDNAKYTVYLQMNSLKPEDTAVYYCAVRSCPYRPRLDYWGQGTQVTVSS”, the “polyreactivity (PSR sort gate)” value is reported as “high polyreactivity”.

Regarding “QFQLVESGGGLVQAGGSLRLSCAASGLILQNYVMGWYRQAPGKERELVAAITRSGGGTYYADSVKGRFTISRDNAKNTVYLQMNSLKPEDTAVYYCAAQRQYGKFDYWGQGTQVTVSS”, the “polyreactivity (PSR sort gate)” value is “high polyreactivity”.

As to “QFQLVESGGGLVQAGGSLRLSCAASGLTFGYYAMGWYRQAPGKERELVAAITSRGGSTYYADSVKRRFTISRDNAKNTVYLQMNSLKPEDTAVYYCAARYAEYGSWGQGTQVTVSS”, the “polyreactivity (PSR sort gate)” value was “high polyreactivity”.

As for “QFQLVESGGGLVQAGGSLRLSCAASGRIFHSNAMGWYRQAPGKERELVAAITWSTGRTYYADSVKGRFTISRDNAKNTVYLQMNSLKPEDTAVYYCFRFSYYTGDYWGQGTQVTVSS”, the “polyreactivity (PSR sort gate)” value is “high polyreactivity”.

Take “QFQLVESGGGLVQAGGSLRLSCAASGRIFVGYAMGSYRQAPGKEMELVATISSRGGSTYYADSVKGRFTISRDNAKNTLYLQMNSLKPEDTAVYYCAAVARNNRNSRQRIPYDFWGQGTQVTVSS”: the “polyreactivity (PSR sort gate)” value is “high polyreactivity”.

As to “QFQLVESGGGLVQAGGSLRLSCAASGRIFYKYVMGWYRQAPGKERELVAAINLSGGTTYYADSVKGRFTISRDNAKNTVYLQMNSLKPEDTAVYYCAADSFTLTHYYWGQGTQVTVSS”, the “polyreactivity (PSR sort gate)” value is “low polyreactivity”.

“QFQLVESGGGLVQAGGSLRLSCAASGRIFYRNAMGWYRQAPGKERELVAAINQTGGSTYYADSVKGRFTISGDNAKNTVYLQMNSLKPDDTAVYYCAVLGQVPTGSSRRYYWGQGTQVTVSS”: the “polyreactivity (PSR sort gate)” value is listed as “high polyreactivity”.

On to “QFQLVESGGGLVQAGGSLRLSCAASGRIFYVYGMGWYRQAPGKERELVAAISKRGDNTYYADSVKGRFTISRDNAKNTVYLQMNSLKPEDTAVYYCNVKRYGGRSDYWGQGTQVTVSS”, for which the “polyreactivity (PSR sort gate)” value was “high polyreactivity”.

Take “QFQLVESGGGLVQAGGSLRLSCAASGRIFYYNAMGWYRQAPGKERELVAAITGGGSTNYADSVKGRFTISRDNAKNTVYLQMNSLKPEDTAVYYCAARHYPRNSWGYDYWGQGTQVTVSS”: the “polyreactivity (PSR sort gate)” value is “high polyreactivity”.

For “QFQLVESGGGLVQAGGSLRLSCAASGRTFIGYAMGWYRQAPGKERELVAAITSDGGTNYADSVKGRFTISRDNAKNTVNLQMNSQKPEDTAVYYCGARRRVSYHLYGYWGQGTQVTLSS”, the “polyreactivity (PSR sort gate)” value is “high polyreactivity”.

“QFQLVESGGGLVQAGGSLRLSCAASGRTFKVYAMGCYRQAPGKERELVAAITGGGSTNYADSVKGRFTISRDNAKNTVYLQMNSLKAEDTAVYYCNARYYYRLVKWSRFSSYDFWGQGTQVTVSS”: the “polyreactivity (PSR sort gate)” value is reported as “low polyreactivity”.

In the case of “QFQLVESGGGLVQAGGSLRLSCAASGRTFYLYAMGWYRQAPGKERELVASISWNGGSTYYADSVKGLFTISRDNAKNYVYLQMNSLKPEDTAVYYCATDSHRSRLNRPYQLFPAYYYWGQGTQVTVSS”, the “polyreactivity (PSR sort gate)” value is “low polyreactivity”.

With “QFQLVESGGGLVQAGGSLRLSCAASGSFSGTNAMGWYRQAPGKERELVAGISYGGGSTYYADSVKGRFTISRDNAKNTVYLQMNSLKPEDTAVYYCAKYYAPYRFYYCGQGTQVTVSS”, the “polyreactivity (PSR sort gate)” value is on record as “high polyreactivity”.
